Substrate in this data set: CCn1c(=NN=c2sc3cc(S(=O)(=O)O)ccc3n2CC)sc2cc(S(=O)(=O)O)ccc21
The data set can be described thus: purified protein. Format: biochemical, Staphylococcus haemolyticus. The note with it: 100 mM sodium acetate pH 4.5, 30°C, ABTS 50-1,000 μM, 5.21 mg/l enzyme.

One may read the Km as the concentration of substrate that gives half-maximal velocity. The kcat is the number of substrate molecules converted per active site and unit of time at saturation.

B1: Mco (Staphylococcus haemolyticus) (protein)
chain: MYNKVFTILIIIFSIIIIASNDTFAESKNDMMNMKEDKKNTMDMTNMKHHDERKKLNSSQGKNEIIFPEVAESKKDNNGYKNYTLKAQKGKTEFYKNNFSNTLGYNGNLLGPTLKLKKGDKVKIKLINNLDENTTFHWHGLEVNGKVDGGPSQVIKPGKEKTIKFEVNQDSATLWYHPHPSPNTAKQVYNGLSGLLYIEDSKKNNYPSNYGKNDLPIIIQDKTFVSKKLNYSKTKDEDGTQGDTVLVNGIVNPKLTAKEEKIRLRLLNGSNARDLNLKLSNNQSFEYIASDGGQLKNAKKLKEINLAPSERKEIVIDLSKMKGEKVSLVDNDKTVILPISNKEKSSNKSNTPKVSKKIKLEGMNDNVTINGNKFDPNRIDFTQKLNQKEVWEIENVKDKMGGMKHPFHIHGTQFKVLSVDGEKPPKDMRGKKDVISLEPGQKAKIEVVFKNTGTYMFHCHILEHEDNGMMGQIKVTN
notes: expressed in E. coli pG-KJE8/BL21
Consider B1, for which the Km is 139.8 µM and the kcat is 6.87 s⁻¹.

The values are drawn from PMC9728370, “Multiple Tolerances and Dye Decolorization Ability of a Novel Laccase Identified from Staphylococcus Haemolyticus” (Journal of Microbiology and Biotechnology, 2020).
